Here are results for one substance from US20090270325A1.

For test [1], the target named is human GHR on human 293 cells stably expressing the human GHR (human) (UniProt P10912).
The target is the same in test [2]. This is another data set of the same source.

The substance “hGH-GHR Chimera (75 kDa chimera) (from UniProt P01241)” came in with a GH-specific luciferase reporter assay (bioactivity) in test [1] of 10%. Besides, in test [2], the concentration for the maximal response, Stat 5 luciferase-reporter assay lay in the range of 50 to 250 nM.
